Data taken from patent US20060051359A1.

Biological target: 8H9 antigen (human) (UniProt Q5ZPR3)
Assay: cell-based or functional assay

UniProt Q5ZPR3, sequence (Q5ZPR3 29-534): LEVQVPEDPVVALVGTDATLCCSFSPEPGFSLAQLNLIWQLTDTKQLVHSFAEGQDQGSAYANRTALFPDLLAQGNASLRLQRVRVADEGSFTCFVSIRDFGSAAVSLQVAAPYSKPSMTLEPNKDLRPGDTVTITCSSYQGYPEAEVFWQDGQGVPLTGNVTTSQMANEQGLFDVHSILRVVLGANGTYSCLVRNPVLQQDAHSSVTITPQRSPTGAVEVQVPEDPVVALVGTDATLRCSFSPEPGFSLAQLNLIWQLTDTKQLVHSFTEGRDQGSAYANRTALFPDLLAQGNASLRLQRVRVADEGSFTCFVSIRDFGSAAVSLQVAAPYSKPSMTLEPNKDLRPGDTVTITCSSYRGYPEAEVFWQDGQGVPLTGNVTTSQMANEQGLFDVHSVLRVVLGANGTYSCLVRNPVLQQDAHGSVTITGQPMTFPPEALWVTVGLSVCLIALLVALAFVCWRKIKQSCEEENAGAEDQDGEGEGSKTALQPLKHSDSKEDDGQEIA

**Q.** What does the source list for 8H9(scFv)-PE38?
**A.** IC50 of 8H9(Fv)-PE38 (ng/ml) on BT-474 cells: 20 ng/mL; IC50 of 8H9(Fv)-PE38 (ng/ml) on CRL1427 (MG63) cells: 50 ng/mL; IC50 of 8H9(Fv)-PE38 (ng/ml) on LAN-1 cells: 12.5 ng/mL; IC50 of 8H9(Fv)-PE38 (ng/ml) on MCF-7 cells: 5 ng/mL; IC50 of 8H9(Fv)-PE38 (ng/ml) on NMB-7 cells: 9 ng/mL; IC50 of 8H9(Fv)-PE38 (ng/ml) on OHS-M1 cells: 20 ng/mL; IC50 of 8H9(Fv)-PE38 (ng/ml) on SK-N-BE(2) cells: 90 ng/mL; IC50 of 8H9(Fv)-PE38 (ng/ml) on U2OS cells: 30 ng/mL; IC50 of 8H9(Fv)-PE38 (ng/ml) on ZR-75-1 cells: 35 ng/mL
